This note sets out measurements from US20030215880A1 (Scripps Research, published 2003).

Experiment [1] addresses T1, PrP^c, cellular isoform of the mouse prion protein (mouse, UniProt P04925 23-230). The experiment can be described thus: immunoprecipitation from normal mouse brain homogenate, positive control.
The target of experiment [2] is T1, PrP^c, cellular isoform of the mouse …. The experiment can be described thus: immunoprecipitation from normal mouse brain homogenate, western blot.

T1 sequence (P04925 23-230 limits assumed): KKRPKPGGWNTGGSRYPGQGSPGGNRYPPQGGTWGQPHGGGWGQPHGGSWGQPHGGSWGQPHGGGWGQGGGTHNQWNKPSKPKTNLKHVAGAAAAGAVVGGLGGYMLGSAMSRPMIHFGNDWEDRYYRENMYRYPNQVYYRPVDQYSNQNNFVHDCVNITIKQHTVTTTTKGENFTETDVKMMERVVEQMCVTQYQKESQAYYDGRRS

B1: Fab D13 (Fab, V domains shown)
VH: VQLLEQSGAELVKPGASVKLSCTTSGLNIEDYYIHWVKQRPEQGLEWIGRIDPENGETLYAPEFQGKATITADTSSNTVYLQLRSLTSEDTAIYYCGRFDGNGWYLDVWGAGTTVTVSS
VL: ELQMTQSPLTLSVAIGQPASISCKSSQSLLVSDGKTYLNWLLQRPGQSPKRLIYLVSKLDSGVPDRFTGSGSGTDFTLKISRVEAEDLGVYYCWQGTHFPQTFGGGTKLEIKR
On to B1, for which the binding result in experiment [1] is listed as “binds”.

B2: Fab b12 (Fab, V domains shown)
VH: QVQLVQSGAEVKKPGASVKVSCQASGYRFSNFVIHWVRQAPGQRFEWMGWINPYNGNKEFSAKFQDRVTFTADTSANTAYMELRSLRSADTAVYYCARVGPYSWDDSPQDNYYMDVWGKGTTVIVSS
VL: EIVLTQSPGTLSLSPGERATFSCRSSHSIRSRRVAWYQHKPGQAPRLVIHGVSNRASGISDRFSGSGSGTDFTLTITRVEPEDFALYYCQVYGASSYTFGQGTKLERKR
Consider B2, for which, in experiment [2], the binding result was “no binding”.

B3: IgG1 b12 (antibody, V domains shown)
VH: B2 VH
VL: B2 VL
notes: Human IgG1
As for B3, the binding result in experiment [2] is “no binding”.
